The values that follow come from US20090041794A1 (IMMATICS BIOTECHNOLOGIES, published 2009).

For the assay, the target named is T1, HLA-A*0201 molecule on TAP-deficient T2 cells (human).
T1 construct: also called HLA-A2
In words: in vitro reconstitution (T2 whole cell-binding) assay on TAP-deficient T2 cells, compared with the Flu reference peptide.

B1: iLR1 59-68 (LLAARAIVAI) (peptide)
peptide: LLAARAIVAI
notes: Synthetic peptide bought from Biosynthan, more than 90% purity; also called RPS-001
With B1, the binding result is “binds”.

B2: iLR2 146-154 (ALCNTDSPL) (peptide)
peptide: ALCNTDSPL
notes: Synthetic peptide bought from Biosynthan, more than 90% purity; also called RPS-002
In the case of B2, the binding result was “binds”.
